Experiments:
1433f_human YWHAH = 1433f_human YWHAH (UniProt Q04917)
dnm1l_human DNM1L = dnm1l_human DNM1L (UniProt O00429)
dnm1l_human DNM1L, sequence (O00429 whole entry): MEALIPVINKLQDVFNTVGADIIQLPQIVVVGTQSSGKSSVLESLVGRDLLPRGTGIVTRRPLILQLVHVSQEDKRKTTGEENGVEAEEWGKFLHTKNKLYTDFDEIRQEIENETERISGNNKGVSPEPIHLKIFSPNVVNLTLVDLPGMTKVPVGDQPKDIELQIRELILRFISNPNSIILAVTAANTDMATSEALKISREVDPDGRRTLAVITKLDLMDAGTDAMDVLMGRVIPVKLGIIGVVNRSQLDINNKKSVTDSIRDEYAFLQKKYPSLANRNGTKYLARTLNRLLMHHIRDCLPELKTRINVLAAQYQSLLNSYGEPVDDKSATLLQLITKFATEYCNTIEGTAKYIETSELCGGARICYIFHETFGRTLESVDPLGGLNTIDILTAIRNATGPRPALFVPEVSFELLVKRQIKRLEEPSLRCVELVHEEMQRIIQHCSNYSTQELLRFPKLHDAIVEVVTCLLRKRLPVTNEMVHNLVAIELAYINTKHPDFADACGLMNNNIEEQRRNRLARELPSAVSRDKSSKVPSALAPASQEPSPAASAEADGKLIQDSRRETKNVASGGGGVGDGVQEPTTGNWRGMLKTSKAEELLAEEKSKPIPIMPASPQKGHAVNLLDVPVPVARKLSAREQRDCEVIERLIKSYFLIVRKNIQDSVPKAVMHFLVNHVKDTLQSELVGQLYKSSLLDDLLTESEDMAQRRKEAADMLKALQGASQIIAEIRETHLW

1433f_human YWHAH, sequence (Q04917 whole entry): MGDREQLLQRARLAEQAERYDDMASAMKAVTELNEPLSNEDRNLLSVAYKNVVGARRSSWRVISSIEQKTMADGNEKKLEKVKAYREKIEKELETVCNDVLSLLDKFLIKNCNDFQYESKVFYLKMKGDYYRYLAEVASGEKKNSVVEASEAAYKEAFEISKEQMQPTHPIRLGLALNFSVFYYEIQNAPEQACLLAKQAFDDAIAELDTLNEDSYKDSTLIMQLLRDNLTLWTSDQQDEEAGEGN

effect of a mutation on the interaction (1433f_human YWHAH): decreasing interaction strength | effect of a mutation on the interaction (dnm1l_human DNM1L): increasing interaction strength
Substance: Leucine-rich repeat serine/threonine-protein kinase 2 (Homo sapiens), Q5S007 E193K
